Measurements taken from paper PMC9163516.
Like-named read-outs stand apart in the source and are kept apart here.

Key:
TβRI ectodomain [1] = target: TβRI ectodomain (UniProt P36897); test: ITC; TGF-β3(TβRII)2 complex titrated into TβRI; 25 mM Hepes, 50 mM NaCl, 0.05% NaN3, pH 7.5, 30 °C
[2] = target: biotinylated avi-tagged TβRII (UniProt P37173)
TβRI ectodomain [3] = target: TβRI ectodomain (UniProt P36897); test: ITC; TGM construct in the syringe (58-150 µM), 7.5 µM TβRI in the cell; 25 mM Hepes, 50 mM NaCl, 0.05% NaN3, pH 7.5, 25 °C; 1:1 model (Nitpic, Sedphat)
TβRII ectodomain [4] = target: TβRII ectodomain (UniProt P37173); test: ITC; TGM construct titrated into TβRII in the cell; 25 mM sodium phosphate, 50 mM NaCl, pH 6.0, 35 °C; 1:1 model
[5] = target: biotinylated avi-tagged TβRII (UniProt P37173); test: SPR; BIAcore X100; biotinylated avi-tagged TβRI or TβRII captured on neutravidin-coated CM-5 chip (results say streptavidin) at 50-150 RU; TGM constructs injected as 2-fold dilution series in 25 mM Hepes, pH 7.4, 150 mM NaCl, 0.005% P20, 100 μl/min; 1:1 kinetic fit of a single injection series
[6] = target: biotinylated avi-tagged TβRII (UniProt P37173); test: SPR; biotinylated avi-tagged TβRII captured at 50-150 RU on neutravidin-coated CM-5 chip; WT TGM-D3 or TGM-D3 variants injected in 25 mM Hepes, pH 7.4, 150 mM NaCl, 0.05% P20, 100 μl/min; 1:1 fit of duplicate or triplicate injection series
[7] = target: biotinylated avi-tagged TβRII (UniProt P37173); test: as above; remark: listed apart in the source
TβRII ectodomain [8] = target: TβRII ectodomain (UniProt P37173); test: ITC; TGM construct in the syringe (300-320 µM), 15 µM TβRII in the cell; 25 mM sodium phosphate, 50 mM NaCl, pH 6.0, 35 °C; 1:1 model (Nitpic, Sedphat)
[9] = target: biotinylated avi-tagged TGM-D3 (Heligmosomoides polygyrus); test: SPR; biotinylated avi-tagged TGM-D3 captured at 50-150 RU on neutravidin-coated CM-5 chip; TβRII variants injected in 25 mM Hepes, pH 7.4, 150 mM NaCl, 0.05% P20, 100 μl/min; 1:1 fit of duplicate or triplicate injection series
TβRI ectodomain [10] = target: TβRI ectodomain (UniProt P36897); test: ITC; TGM construct titrated into TβRI in the cell; 25 mM Hepes, 50 mM NaCl, 0.05% NaN3, pH 7.5, 25 °C; 1:1 model
[11] = target: biotinylated avi-tagged TβRI (UniProt P36897); test: SPR; BIAcore X100; biotinylated avi-tagged TβRI or TβRII captured on neutravidin-coated CM-5 chip (results say streptavidin) at 50-150 RU; TGM constructs injected as 2-fold dilution series in 25 mM Hepes, pH 7.4, 150 mM NaCl, 0.005% P20, 100 μl/min; 1:1 kinetic fit of a single injection series
TβRII ectodomain [12] = target: TβRII ectodomain (UniProt P37173); test: ITC; competition: 150 μM mmTGF-β27M injected into 15 μM TβRII with 0, 6.0 or 12.0 μM TGM-D3; 25 mM sodium phosphate, 50 mM NaCl, pH 6.0, 35 °C; global fit of the three datasets to a 1:1 model with competition

“TGF-β3(TβRII)2 binary complex (from UniProt P37173 23-166)” gave a Kd (TβRI ectodomain [1]) of 0.061 µM and a dH (TβRI ectodomain [1]) of -17.6 kJ/mol.
Substance “TGM D13 (TGM D1-D3), wild type (domain or fragment)” has an EC50 of signaling, MFB-F11 TGF-β reporter bioassay [2] of 3.9 ng/mL.
Work on TGM D13 I238A (domain or fragment) yielded an EC50 of signaling, MFB-F11 TGF-β reporter bioassay [2] of 9.7 ng/mL.
TGM D13 I256A (domain or fragment) was tested, and the EC50 of signaling, MFB-F11 TGF-β reporter bioassay [2] was 4.5 ng/mL.
In the case of TGM D13 Y252A (domain or fragment), the EC50 of signaling, MFB-F11 TGF-β reporter bioassay [2] is reported as 7 ng/mL.
TGM-D2 (domain or fragment) showed a Kd (TβRI ectodomain [3]) of 1.5 µM and a stoichiometry N (TβRI ectodomain [3]) of 0.54.
For TGM-D3 (domain or fragment), the stoichiometry N (TβRII ectodomain [4]) was 1, the Kd [5] was 0.91 µM and the koff [5] was 0.6 s⁻¹. The kon [5] was 600000 M⁻¹ s⁻¹.
With TGM-D3 F235A (domain or fragment) the fold increase of KD against WT [6] was 4 fold.
Work on TGM-D3 I238A (domain or fragment) yielded a fold increase of KD against WT [6] greater than 20 fold.
With TGM-D3 K254A (domain or fragment) the fold increase of KD against WT [6] was greater than 20 fold and the fold increase of KD against WT [7] was greater than 30 fold.
With TGM-D3 R198A (domain or fragment) the fold increase of KD against WT [6] was greater than 20 fold and the fold increase of KD against WT [7] was greater than 30 fold.
Substance TGM-D3 V236A (domain or fragment) has a fold increase of KD against WT [6] of 4 fold.
Work on TGM-D3 Y252A (domain or fragment) yielded a fold increase of KD against WT [6] greater than 20 fold.
TGM-D12 (domain or fragment) gave a stoichiometry N (TβRI ectodomain [3]) of 1.2.
TGM-FL (natural protein) gave a Kd (TβRII ectodomain [8]) of 0.55 µM, a stoichiometry N (TβRII ectodomain [8]) of 0.84 and a Kd (TβRI ectodomain [3]) of 0.052 µM. For the same substance, the stoichiometry N (TβRI ectodomain [3]) was 0.96.
With “TβRII E142Q (from UniProt P37173 23-166) (receptor)” the fold increase of KD against WT [9] was 17 fold.
“TβRII I73A (from UniProt P37173 23-166) (receptor)” showed a fold increase of KD against WT [9] of 7 fold.
With “TβRII I76A (from UniProt P37173 23-166) (receptor)” the fold increase of KD against WT [9] was 26 fold.
In the case of “TβRII S75L (from UniProt P37173 23-166) (receptor)”, the fold increase of KD against WT [9] is reported as 200 fold.
Substance “full-length TGM (TGF-β mimic) (natural protein)” has a stoichiometry N (TβRII ectodomain [4]) of 1, a stoichiometry N (TβRI ectodomain [10]) of 1 and a Kd [5] of 0.61 µM. For the same substance, the koff [5] was 0.1 s⁻¹, the kon [5] was 2e+07 M⁻¹ s⁻¹ and the Kd [11] was 0.013 µM. It also gave a koff [11] of 0.00078 s⁻¹ and a kon [11] of 59000 M⁻¹ s⁻¹.
Work on “mmTGF-β27M, engineered TGF-β monomer (from UniProt P61812) (ligand)” yielded a Kd (TβRII ectodomain [12]) of 0.035 µM.
